In patent publication EP4176934A1, “LIPIDIZED COCAINE- AND AMPHETAMINE-REGULATED TRANSCRIPT PEPTIDE ANALOGUES AS ANTI-OBESITY AND NEUROPROTECTIVE AGENTS” (Ustav organicke chemie a biochemie AV CR, v.v.i., priority 2021, dated 2023):
Bridge positions count the residues as written; N and C are the ends. Square brackets hold non-standard residues; d marks the D form. Ends that are not written are not given here. * marks the point of attachment. Palmitoyl = CCCCCCCCCCCCCCCC(=O)*; Myristoyl = CCCCCCCCCCCCCC(=O)*; Nle = CCCC[C@H](N)C(=O)O; Octanoyl = CCCCCCCC(=O)*

B1: 125I-CART(61-102) (peptide)
peptide: KYGQVPMCDAGEQCAVRKGARIGKLCDCPRGTSCNSFLLKCL
modifications: disulfide 14-34, 8-26, 28-41; ends not checked; also: monoiodinated with 125I, residue not given here

What was measured:
[1] = target: CARTp binding site in PC12 cells (prospective CARTp receptor) (rat); assay: displacement of 125I-CART(61-102) from PC12 cells; range told of the group, this end tied by Table 2
[2] = target: CARTp binding site in PC12 cells (prospective CARTp receptor) (rat); assay: displacement of 125I-CART(61-102) from PC12 cells, relative to CART(61-102)
[3] = target: CARTp binding site in PC12 cells (prospective CARTp receptor) (rat); assay: displacement of 125I-CART(61-102) from PC12 cells, Cheng-Prusoff
[4] = Stability in rat plasma measured by ELISA; type: in vitro ADME; settings: 100 ng.ml^-1, 37 °C, 96 hours, EDTA plasma, compared to CART 2S-S
Description: Blank rat pooled EDTA plasma was conditioned in an incubator at 37 °C. Plasma was preheated to reach required temperature and then it was spiked with a solution of CART 2S-S and palm-CART analogues (dissolved in aqueous 0.5% formic acid) to a final concentration 100 ng.ml^-1. Duplicates were taken for ELISA analysis, sampling volume was 50 µL. Samples were immediately transferred to -20 °C.
ELISA kit for CARTp (MyBioSource, San Diego, CA, USA) was used in accordance with manufacturer's directions. In addition, external calibration using palm-CART was used. The rat plasma was applied for the calibration to comprise specific influence of different matrices on the immunoanalysis output.

[5] = target: CARTp binding site in PC12 cells (prospective CARTp receptor) (rat); assay: Kd of the radioligand on PC12 cells, used in the Cheng-Prusoff equation; how it was measured is not stated
[6] = target: CARTp binding site in PC12 cells (prospective CARTp receptor) (rat); assay: radioligand binding on PC12 cells, 10^-10 M tracer

Molecule	Ki [1] [nM]	% binding CART(61-102) [2] [%]	Ki [3] [nM]	stability in rat plasma [4]	Kd [5] [nM]	total binding, % of the radioactivity added [6] [%]
Palm-CART [74-94, 86-101] (peptide)	1000	0.85	1090			
Palmitoyl-KYGQVP[Nle]ADAGEQCAVRKGARIGKLADCPRGTSCNSFLLKCL (disulfide 14-34, 28-41) [Palm-CART]				higher stability		
KYGQVPMCDAGEQCAVRKGARIGKLCDCPRGTSCNSFLLKCL (disulfide 14-34, 8-26, 28-41) [CART(61-102)]		100	9.33			
B1					1.49	3 to 8
KYGQVP[Nle]ADAGEQCAVRKGARIGKLADCPRGTSCNSFLLKCL (disulfide 14-34, 28-41) [CART 2S-S]		3.5	261			
Palmitoyl-KYGQVP[Nle]ADAGEQCAVRKGARIGKLADCPRGTSCNSFLLKCL (disulfide 14-34, 28-41) [Palm-CART]	1	652	1.43			
Myristoyl-KYGQVP[Nle]ADAGEQCAVRKGARIGKLADCPRGTSCNSFLLKCL (disulfide 14-34, 28-41) [Myr-CART]		78	12.1			
Octanoyl-KYGQVP[Nle]ADAGEQCAVRKGARIGKLADCPRGTSCNSFLLKCL (disulfide 14-34, 28-41) [Oct-CART]		12	76.1			
